# Assay results published in patent publication US20200317768A1 (published 2020).
# Residue numbers refer to the chain shown, from its start.
# T1: cynomolgus monkey FcγRIIa3 extracellular domain with C-terminal His-tag (cynomolgus monkey)
# T1 construct: also called cyno FcgRIIa3; cynoFcγRIIa3
# T1 chain: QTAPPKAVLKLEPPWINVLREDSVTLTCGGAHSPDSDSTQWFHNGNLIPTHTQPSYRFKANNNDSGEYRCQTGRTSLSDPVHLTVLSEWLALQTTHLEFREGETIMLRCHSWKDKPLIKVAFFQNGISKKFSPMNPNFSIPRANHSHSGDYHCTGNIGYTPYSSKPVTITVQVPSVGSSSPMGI
# B1: M103205H795-MY209/M103202L889-SK1 (antibody, human IgG1, kappa)
# heavy: QVTLKESGPVLVKPTETLTLTCTVSGIDLSHDDISWVRQAPGKGLEWVGIISYAGSTYYASWAKGRLTISKDTSKNQVVLTMTNMDPVDTATYYCARGVPAYSHGGDLWGQGTLVTVSSASTKGPSVFPLAPSSKSTSGGTAALGCLVKDYFPEPVTVSWNSGALTSGVHTFPAVLQSSGLYSLSSVVTVPSSSLGTQTYICNVNHKPSNTKVDKKVEPKSCDKTHTCPPCPAPELLNGPSVFLFPPKPKDTLMISRTPEVTCVVVDVSDEDPEVKFNWYVDGVEVHNAKTKPREELYNSTYRVVSVLTVLHQDWLNGKEYKCKVSNTALPKPIEKTISKAKGQPREPQVYTLPPSREEMTKNQVSLTCLVKGFYPSDIAVEWESNGQPENNYKTTPPVLDSDGSFFLYSKLTVDKSRWQQGNVFSCSVMHEALHNHYTQKSLSLSP
# light: DIVMTQSPATLSLSPGERATLSCTSSQSVYHANWLSWFQQKPGQPPKLLIYWASTLAYGVPSRFSGSGSGTDFTLTISSLQPEDAATYYCAGGYGGGRYAFGQGTKVEIKRTVAAPSVFIFPPSDEQLKSGTASVVCLLNNFYPREAKVQWKVDNALQSGNSQESVTEQDSKDSTYSLSSTLTLSKADYEKHKVYACEVTHQGLSSPVTKSFNRGEC
# notes: Substitutions introduced into M103205H795-SG1, expressed with M103202L889-SK1 as light chain; EU numbering
# B2: M103205H795-MY392/M103202L889-SK1 (antibody, human IgG1, kappa)
# heavy: B1 heavy with N238T, L297Q, S300L, T328K
# light: B1 light
# notes: as for B1
# B3: M103205H795-MY523/M103202L889-SK1 (antibody, human IgG1, kappa)
# heavy: B1 heavy with A233G, N238T, S241V, T328K
# light: B1 light
# notes: as for B1
# B4: M103205H795-MY532/M103202L889-SK1 (antibody, human IgG1, kappa)
# heavy: B1 heavy with L236W, N238T, S241V, L297Q, T328K
# light: B1 light
# notes: as for B1
# B5: M103205H795-MY340/M103202L889-SK1 (antibody, human IgG1, kappa)
# heavy: B1 heavy with N238L, T328K, P398K
# light: B1 light
# notes: as for B1
# B6: M103205H795-MY530/M103202L889-SK1 (antibody, human IgG1, kappa)
# heavy: B1 heavy with N238T, L297Q
# light: B1 light
# notes: as for B1
# B7: M103205H795-MY339/M103202L889-SK1 (antibody, human IgG1, kappa)
# heavy: B1 heavy with N238L, L297Q, P398K
# light: B1 light
# notes: as for B1
# B8: M103205H795-MY524/M103202L889-SK1 (antibody, human IgG1, kappa)
# heavy: B1 heavy with A233G, N238T, T328K
# light: B1 light
# notes: as for B1
# B9: M103205H795-MY522/M103202L889-SK1 (antibody, human IgG1, kappa)
# heavy: B1 heavy with A233G, N238T, S241V, L297Q, T328K
# light: B1 light
# notes: as for B1
# B10: M103205H795-MY526/M103202L889-SK1 (antibody, human IgG1, kappa)
# heavy: B1 heavy with A233T, N238T, S241V, T328K
# light: B1 light
# notes: as for B1
# B11: M103205H795-MY388/M103202L889-SK1 (antibody, human IgG1, kappa)
# heavy: B1 heavy with N238T, S241I, L297Q, T328K
# light: B1 light
# notes: as for B1
# B12: M103205H795-MY527/M103202L889-SK1 (antibody, human IgG1, kappa)
# heavy: B1 heavy with A233T, N238T, T328K
# light: B1 light
# notes: as for B1
# B13: M103205H795-MY528/M103202L889-SK1 (antibody, human IgG1, kappa)
# heavy: B1 heavy with L236W, N238T, L297Q, T328K
# light: B1 light
# notes: as for B1
# B14: M103205H795-MY529/M103202L889-SK1 (antibody, human IgG1, kappa)
# heavy: B1 heavy with L236W, N238T, T328K
# light: B1 light
# notes: as for B1
# B15: M103205H795-MY400/M103202L889-SK1 (antibody, human IgG1, kappa)
# heavy: B1 heavy with N238T, L297Q, T328K, P333E
# light: B1 light
# notes: as for B1
# B16: M103205H795-MY342/M103202L889-SK1 (antibody, human IgG1, kappa)
# heavy: B1 heavy with N238L, T328K, P398M
# light: B1 light
# notes: as for B1
# B17: M103205H795-MY515/M103202L889-SK1 (antibody, human IgG1, kappa)
# heavy: B1 heavy with N238T, S300L, T328K
# light: B1 light
# notes: as for B1
# B18: M103205H795-MY516/M103202L889-SK1 (antibody, human IgG1, kappa)
# heavy: B1 heavy with N238T, S241V, S300L, T328K
# light: B1 light
# notes: as for B1
# B19: M103205H795-MY520/M103202L889-SK1 (antibody, human IgG1, kappa)
# heavy: B1 heavy with P234D, N238T, S241V, T328K
# light: B1 light
# notes: as for B1
# B20: M103205H795-MY514/M103202L889-SK1 (antibody, human IgG1, kappa)
# heavy: B1 heavy with N238T, S241V, L297Q, S300L, T328K
# light: B1 light
# notes: as for B1
# B21: M103205H795-MY341/M103202L889-SK1 (antibody, human IgG1, kappa)
# heavy: B1 heavy with N238L, P398K
# light: B1 light
# notes: as for B1
# B22: M103205H795-MY521/M103202L889-SK1 (antibody, human IgG1, kappa)
# heavy: B1 heavy with P234D, N238T, T328K
# light: B1 light
# notes: as for B1
# B23: M103205H795-MY386/M103202L889-SK1 (antibody, human IgG1, kappa)
# heavy: B1 heavy with N238L
# light: B1 light
# notes: as for B1
# B24: M103205H795-MY380/M103202L889-SK1 (antibody, human IgG1, kappa)
# heavy: B1 heavy with D270E, L297Q, T328K, P398K
# light: B1 light
# notes: as for B1
# B25: M103205H795-MY283/M103202L889-SK1 (antibody, human IgG1, kappa)
# heavy: B1 heavy with N238T, T328K
# light: B1 light
# notes: as for B1
# B26: M103205H795-MY531/M103202L889-SK1 (antibody, human IgG1, kappa)
# heavy: B1 heavy with L236W, N238T, L297Q
# light: B1 light
# notes: as for B1
# B27: M103205H795-MY387/M103202L889-SK1 (antibody, human IgG1, kappa)
# heavy: B1 heavy with N238T, S241V, L297Q, T328K
# light: B1 light
# notes: as for B1
# B28: M103205H795-MY525/M103202L889-SK1 (antibody, human IgG1, kappa)
# heavy: B1 heavy with A233T, N238T, S241V, L297Q, T328K
# light: B1 light
# notes: as for B1
# B29: M103205H795-MY389/M103202L889-SK1 (antibody, human IgG1, kappa)
# heavy: B1 heavy with N238T, S241L, L297Q, T328K
# light: B1 light
# notes: as for B1
# Target: T1, cynomolgus monkey FcγRIIa3 …
# Assay: SPR (BIACORE); KD of SG1 / KD of variant;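 further: relative to parent M103205H795-SG1 carrying the SG1 human heavy chain constant region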
row,KD fold (SG1 = 1) [fold],Binder
1,8.9,B1
2,4.4,B2
3,15.5,B3
4,23,B4
5,0.7,B5
6,6.8,B6
7,1.7,B7
8,6.3,B8
9,18.3,B9
10,13.1,B10
11,13.1,B11
12,5,B12
13,5.3,B13
14,5.3,B14
15,4.5,B15
16,0.3,B16
17,5.9,B17
18,21.5,B18
19,8.3,B19
20,11.3,B20
21,1.9,B21
22,3.9,B22
23,1.1,B23
24,3.2,B24
25,3.5,B25
26,7.7,B26
27,12.1,B27
28,15.5,B28
29,12.1,B29
